Experiments:
[1] = system: histone H2B
[2] = system: T1, mutant eNOS peptide (1174-1194) with serine 1179 substituted by alanine
T1 sequence: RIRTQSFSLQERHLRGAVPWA

[3] = system: T2, wild type eNOS peptide 1174-RIRTQSFSLQERHLRGAVPWA-1194
T2 sequence: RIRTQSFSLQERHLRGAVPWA

[4] = target: T3, endogenous eNOS of HUVEC (UniProt P29474)
T3 sequence: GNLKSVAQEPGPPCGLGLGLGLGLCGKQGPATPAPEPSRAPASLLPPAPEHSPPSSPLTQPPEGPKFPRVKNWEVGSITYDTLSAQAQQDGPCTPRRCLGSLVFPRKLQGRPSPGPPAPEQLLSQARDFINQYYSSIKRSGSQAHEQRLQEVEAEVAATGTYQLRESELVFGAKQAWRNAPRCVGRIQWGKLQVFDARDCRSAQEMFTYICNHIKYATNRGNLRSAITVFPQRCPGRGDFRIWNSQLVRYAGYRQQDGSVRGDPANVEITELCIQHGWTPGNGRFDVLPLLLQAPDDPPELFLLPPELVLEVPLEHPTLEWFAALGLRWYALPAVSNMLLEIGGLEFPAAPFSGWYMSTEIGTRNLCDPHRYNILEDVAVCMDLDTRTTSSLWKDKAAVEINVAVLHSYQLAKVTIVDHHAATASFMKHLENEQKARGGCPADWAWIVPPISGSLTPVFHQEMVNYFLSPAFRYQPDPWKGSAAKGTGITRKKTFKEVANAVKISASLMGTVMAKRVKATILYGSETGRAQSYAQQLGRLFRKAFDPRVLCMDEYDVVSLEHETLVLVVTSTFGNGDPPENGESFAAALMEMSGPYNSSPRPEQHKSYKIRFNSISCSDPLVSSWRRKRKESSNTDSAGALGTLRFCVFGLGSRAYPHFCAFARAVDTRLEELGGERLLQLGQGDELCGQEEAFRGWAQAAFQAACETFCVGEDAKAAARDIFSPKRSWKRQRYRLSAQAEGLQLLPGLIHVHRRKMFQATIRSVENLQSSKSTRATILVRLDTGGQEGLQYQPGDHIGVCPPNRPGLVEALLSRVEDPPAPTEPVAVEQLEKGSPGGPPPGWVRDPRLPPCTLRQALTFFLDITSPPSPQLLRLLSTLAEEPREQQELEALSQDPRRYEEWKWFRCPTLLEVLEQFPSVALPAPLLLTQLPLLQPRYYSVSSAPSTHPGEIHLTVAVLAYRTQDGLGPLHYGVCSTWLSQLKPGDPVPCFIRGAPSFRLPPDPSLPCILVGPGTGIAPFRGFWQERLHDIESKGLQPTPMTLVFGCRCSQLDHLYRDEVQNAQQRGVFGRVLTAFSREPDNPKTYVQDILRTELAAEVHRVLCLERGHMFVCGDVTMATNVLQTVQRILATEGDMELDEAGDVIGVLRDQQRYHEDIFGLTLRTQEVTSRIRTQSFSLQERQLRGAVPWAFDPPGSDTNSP

Substance | phosphorylation of histone H2B by immunoprecipitated Akt (autoradiography) [1] | 32P incorporation into eNOS peptide by immunoprecipitated Akt (in vitro kinase assay) [2] | 32P incorporation into eNOS peptide by immunoprecipitated Akt (in vitro kinase assay) [3] | 32P-phosphate incorporation into endogenous eNOS in HUVEC (immunoprecipitation, autoradiography) [4]
Akt immunoprecipitated from HUVEC lysate with goat polyclonal anti-Akt1 antibody | Akt polypeptide kinase activity was increased in lysates of HUVEC treated with 1.0 µM simvastatin or 100 ng/ml VEGF | a peptide with alanine substituted for serine at position 1179 did not incorporate appreciable phosphate under any condition tested | Activation of Akt kinase activity was also observed when lysates prepared from simvastatin-treated cells were tested for their ability to phosphorylate a peptide containing the Akt phosphorylation site of eNOS (amino acids 1174 to 1194) | 
constitutively-active Akt (myrAkt), expressed in HUVEC from an adenovirus |  |  |  | adenovirus-mediated transduction of constitutively-active Akt (myrAkt) led to the incorporation of phosphate into eNOS in the absence of stimulation with simvastatin or VEGF

Source: US20040122077
